From the RNAGym collection of RNA variant scans (doi:10.1093/molbev/msab373)

B1: Azoarcus group I ribozyme (parent)
chain: GUGCCUUGCGCCGGGAAACCACGCAAGGGAUGGUGUCAAAUUCGGCGAAACCUAAGCGCCCGCCCGGGCGUAUGGCAACGCCGAGCCAAGCUUCGGCGCCUGCGCCGAUGAAGGUGUAGAGACUAGACGGCACCCACCUAAGGCAAACGCUAUGGUGAAGGCAUAGUCCAGGGAGUGGCGAAAGUCACACAAACCGG

Variants of: B1
Assay: reverse-splicing fitness (ratio to wild type); higher = more active; in vitro selection; Mg2+ level not given
Procedure, shortened: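 An in vitro group I ribozyme library with randomized positions was T7-transcribed and gel-purified. In triplicate, 10 pmol RNA in EPPS pH 7.5 was reacted with 50 pmoles of a 30-nt RNA substrate for 1 h at 37 °C across several added MgCl2 levels (1–48 mM), then stopped with EDTA. Products were reverse transcribed from a substrate-complementary primer, PCR-amplified and sequenced (HiSeq 4000). Fitness is a variant's read proportion after selection over that before, normalised to wild type.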

| Variant | reverse-splicing fitness |
| --- | --- |
| GUGCCUUGCGCCGGGAAACCACGCAAGGGAUGGUGUCAAAUUCGGCGAAACCUAAGCGCCCGCCCGGGCGUAUGGCAACGCUGAGCCAAGCUUCGGCGCCUGCGCCGAUGCAGGUGUAGAGACUAGACGGCACCCACCUAAGGCUAACGUUAUGGUGAAGGCAUAGUCUAGGGAGUGGCGAAAGUCACACAAACCGG [C82U A111C A145U C150U C169U] | 0.0107 |
| GUGCCUUGCGCCGGGAAACCACGCAAGGGAUGGUGUCAAAUUCGGCGAAACCUAAGCGCCCGCCCGGGCGUAUGGCAACGCUGAGCCAAGCUUCGGCGCCUGCGCCGAUGCAGGUGUAGAGACUAGACGGCACCCACCUAAGGCUAACGUUAUGGUGAAGGCAUAGUCUAGGGAGAGGCGAAAGUCACACAAACCGG [C82U A111C A145U C150U C169U U176A] | 0.0154 |
| GUGCCUUGCGCCGGGAAACCACGCAAGGGAUGGUGUCAAAUUCGGCGAAACCUAAGCGCCCGCCCGGGCGUAUGGCAACGCUGAGCCAAGCUUCGGCGCCUGCGCCGAUGCAGGUGUAGAGACUAGACGGCACCCACCUAAGGCUAACGUUAUGGUGAAGGCAUAGUCUAGGGAGCGGCGAAAGUCACACAAACCGG [C82U A111C A145U C150U C169U U176C] | 0.0136 |
| GUGCCUUGCGCCGGGAAACCACGCAAGGGAUGGUGUCAAAUUCGGCGAAACCUAAGCGCCCGCCCGGGCGUAUGGCAACGCUGAGCCAAGCUUCGGCGCCUGCGCCGAUGCAGGUGUAGAGACUAGACGGCACCCACCUAAGGCUAACGUUAUGGUGAAGGCAUAGUCUAGGGAGGGGCGAAAGUCACACAAACCGG [C82U A111C A145U C150U C169U U176G] | 0.00669 |
| GUGCCUUGCGCCGGGAAACCACGCAAGGGAUGGUGUCAAAUUCGGCGAAACCUAAGCGCCCGCCCGGGCGUAUGGCAACGCUGAGCCAAGCUUCGGCGCCUGCGCCGAUGCAGGUGUAGAGACUAGACGGCACCCACCUAAGGCUAACGUUAUGGUGAAGGCAUAGUCCAGGGAGAGGCGAAAGUCACACAAACCGG [C82U A111C A145U C150U U176A] | 0.0489 |
| GUGCCUUGCGCCGGGAAACCACGCAAGGGAUGGUGUCAAAUUCGGCGAAACCUAAGCGCCCGCCCGGGCGUAUGGCAACGCUGAGCCAAGCUUCGGCGCCUGCGCCGAUGCAGGUGUAGAGACUAGACGGCACCCACCUAAGGCUAACGUUAUGGUGAAGGCAUAGUCCAGGGAGCGGCGAAAGUCACACAAACCGG [C82U A111C A145U C150U U176C] | 0.0704 |
| GUGCCUUGCGCCGGGAAACCACGCAAGGGAUGGUGUCAAAUUCGGCGAAACCUAAGCGCCCGCCCGGGCGUAUGGCAACGCUGAGCCAAGCUUCGGCGCCUGCGCCGAUGCAGGUGUAGAGACUAGACGGCACCCACCUAAGGCUAACGUUAUGGUGAAGGCAUAGUCCAGGGAGGGGCGAAAGUCACACAAACCGG [C82U A111C A145U C150U U176G] | 0.0152 |
| GUGCCUUGCGCCGGGAAACCACGCAAGGGAUGGUGUCAAAUUCGGCGAAACCUAAGCGCCCGCCCGGGCGUAUGGCAACGCUGAGCCAAGCUUCGGCGCCUGCGCCGAUGCAGGUGUAGAGACUAGACGGCACCCACCUAAGGCUAACGCUAUGGUGAAGGCAUAGUCAAGGGAGUGGCGAAAGUCACACAAACCGG [C82U A111C A145U C169A] | 0.00715 |
| GUGCCUUGCGCCGGGAAACCACGCAAGGGAUGGUGUCAAAUUCGGCGAAACCUAAGCGCCCGCCCGGGCGUAUGGCAACGCUGAGCCAAGCUUCGGCGCCUGCGCCGAUGCAGGUGUAGAGACUAGACGGCACCCACCUAAGGCUAACGCUAUGGUGAAGGCAUAGUCAAGGGAGAGGCGAAAGUCACACAAACCGG [C82U A111C A145U C169A U176A] | 0.0129 |
| GUGCCUUGCGCCGGGAAACCACGCAAGGGAUGGUGUCAAAUUCGGCGAAACCUAAGCGCCCGCCCGGGCGUAUGGCAACGCUGAGCCAAGCUUCGGCGCCUGCGCCGAUGCAGGUGUAGAGACUAGACGGCACCCACCUAAGGCUAACGCUAUGGUGAAGGCAUAGUCAAGGGAGCGGCGAAAGUCACACAAACCGG [C82U A111C A145U C169A U176C] | 0.0139 |
| GUGCCUUGCGCCGGGAAACCACGCAAGGGAUGGUGUCAAAUUCGGCGAAACCUAAGCGCCCGCCCGGGCGUAUGGCAACGCUGAGCCAAGCUUCGGCGCCUGCGCCGAUGCAGGUGUAGAGACUAGACGGCACCCACCUAAGGCUAACGCUAUGGUGAAGGCAUAGUCAAGGGAGGGGCGAAAGUCACACAAACCGG [C82U A111C A145U C169A U176G] | 0.00703 |
| GUGCCUUGCGCCGGGAAACCACGCAAGGGAUGGUGUCAAAUUCGGCGAAACCUAAGCGCCCGCCCGGGCGUAUGGCAACGCUGAGCCAAGCUUCGGCGCCUGCGCCGAUGCAGGUGUAGAGACUAGACGGCACCCACCUAAGGCUAACGCUAUGGUGAAGGCAUAGUCGAGGGAGUGGCGAAAGUCACACAAACCGG [C82U A111C A145U C169G] | 0.0103 |
| GUGCCUUGCGCCGGGAAACCACGCAAGGGAUGGUGUCAAAUUCGGCGAAACCUAAGCGCCCGCCCGGGCGUAUGGCAACGCUGAGCCAAGCUUCGGCGCCUGCGCCGAUGCAGGUGUAGAGACUAGACGGCACCCACCUAAGGCUAACGCUAUGGUGAAGGCAUAGUCGAGGGAGAGGCGAAAGUCACACAAACCGG [C82U A111C A145U C169G U176A] | 0.0145 |
| GUGCCUUGCGCCGGGAAACCACGCAAGGGAUGGUGUCAAAUUCGGCGAAACCUAAGCGCCCGCCCGGGCGUAUGGCAACGCUGAGCCAAGCUUCGGCGCCUGCGCCGAUGCAGGUGUAGAGACUAGACGGCACCCACCUAAGGCUAACGCUAUGGUGAAGGCAUAGUCGAGGGAGCGGCGAAAGUCACACAAACCGG [C82U A111C A145U C169G U176C] | 0.0162 |
| GUGCCUUGCGCCGGGAAACCACGCAAGGGAUGGUGUCAAAUUCGGCGAAACCUAAGCGCCCGCCCGGGCGUAUGGCAACGCUGAGCCAAGCUUCGGCGCCUGCGCCGAUGCAGGUGUAGAGACUAGACGGCACCCACCUAAGGCUAACGCUAUGGUGAAGGCAUAGUCGAGGGAGGGGCGAAAGUCACACAAACCGG [C82U A111C A145U C169G U176G] | 0.00667 |
